Data on seven molecules can be found in patent US20260166085A1 (BEAM THERAPEUTICS, published 2026).

Test [1] deals with T1, Wild type CD117 purified protein (human, UniProt P10721 26-520, limits assumed).
T1 construct: Protein used in BLI/kinetics and cryo-EM; also called wt CD117; Wt CD117
The test can be described thus: KD, method not stated (Table 8B).

The next test deals with T2, Cyno CD117 (cynomolgus, UniProt F6V858 26-520 (rhesus entry)).
T2 construct: also called cynomolgus CD117
Put plainly: KD, method not stated (Table 8B).

Test [2] addresses T3, CC89 variant of CD117 (T144A) on M07e cells (human, UniProt P10721 26-976).
T3 construct: also called CC89-M07e
Put plainly: binding to edited M07e cells (Table 8B).

For test [3], the target named is T1, Wild type CD117 purified protein. The test can be described thus: summary Table 75 (repeats Table 71).
Test [4] addresses T4, Wild type CD117 expressed on cells (M07e cells, unedited human CD34+ HSPCs) (human, UniProt P10721 26-976).
T4 construct: Endogenous receptor on cells; also called wtCD117; WT CD117
Put plainly: summary Table 75 (repeats Table 73).

Test [5] concerns the target T4, Wild type CD117 expressed on cells …. Put plainly: flow cytometry on M07e cells, AF647 secondary (FIG. 76A).
The target in test [6] is T1, Wild type CD117 purified protein. The test can be described thus: monovalent KD, CD117 titrated (FIGS. 73A-73E).
The target in test [7] is T4, Wild type CD117 expressed on cells …. The test can be described thus: cell-based or functional assay.
Test [8] deals with T1, Wild type CD117 purified protein. Put plainly: binding kinetics grade, FIGS. 55A-55C.
For test [9], the target named is T4, Wild type CD117 expressed on cells …. The test can be described thus: flow cytometry (MFI) on M07e cells (FIG. 59). (In flow cytometry, cells or beads pass a laser one at a time.)
The target is the same in test [10]. Put plainly: cell-based or functional assay. The source holds these as a separate data set.
Test [11] has as its target T1, Wild type CD117 purified protein. The test can be described thus: binding kinetics, antibody 333.3 to 5.2 nM (FIGS. 58A-58D).
Test [12] has as its target wild type CD117 extracellular domain (ECD) protein (human, UniProt P10721 26-524). Put plainly: BLI (Octet), antibody on AHC biosensor, CD117 ECD titrated 1:2 from 345 nM. As for the experimental part: The AHC biosensor data was analyzed using Octet Analysis Studio software.
For orientation: In BLI a coated tip is dipped into the sample, and binding shifts an interference pattern.

Test [13] concerns the target T4, Wild type CD117 expressed on cells …. Put plainly: flow cytometry on M07e cells expressing wild type CD117, 1 h (FIG. 87A).
Test [14] has as its target T5, CC128 variant of CD117 (Y259C + N260D) purified protein (human, UniProt P10721 26-520, limits assumed).
T5 construct: also called CC128-edited CD117 as purified protein
Put plainly: BLI (Octet), CC128 variant on SA biosensor, antibody titrated 1:2 from 2.5 µM. As for the experimental part:
Binding to the CC128 variant of CD117 was determined using streptavidin (SA) biosensors, which were allowed to bind the CC128 variant from a 5 μg/ml solution thereof. The SA biosensors were then titrated with monoclonal antibodies starting at 2.5 μM and using titration increments of 1:2. Data was analyzed using the Octet Analysis Studio Software.

T4 sequence (P10721 26-976 limits assumed): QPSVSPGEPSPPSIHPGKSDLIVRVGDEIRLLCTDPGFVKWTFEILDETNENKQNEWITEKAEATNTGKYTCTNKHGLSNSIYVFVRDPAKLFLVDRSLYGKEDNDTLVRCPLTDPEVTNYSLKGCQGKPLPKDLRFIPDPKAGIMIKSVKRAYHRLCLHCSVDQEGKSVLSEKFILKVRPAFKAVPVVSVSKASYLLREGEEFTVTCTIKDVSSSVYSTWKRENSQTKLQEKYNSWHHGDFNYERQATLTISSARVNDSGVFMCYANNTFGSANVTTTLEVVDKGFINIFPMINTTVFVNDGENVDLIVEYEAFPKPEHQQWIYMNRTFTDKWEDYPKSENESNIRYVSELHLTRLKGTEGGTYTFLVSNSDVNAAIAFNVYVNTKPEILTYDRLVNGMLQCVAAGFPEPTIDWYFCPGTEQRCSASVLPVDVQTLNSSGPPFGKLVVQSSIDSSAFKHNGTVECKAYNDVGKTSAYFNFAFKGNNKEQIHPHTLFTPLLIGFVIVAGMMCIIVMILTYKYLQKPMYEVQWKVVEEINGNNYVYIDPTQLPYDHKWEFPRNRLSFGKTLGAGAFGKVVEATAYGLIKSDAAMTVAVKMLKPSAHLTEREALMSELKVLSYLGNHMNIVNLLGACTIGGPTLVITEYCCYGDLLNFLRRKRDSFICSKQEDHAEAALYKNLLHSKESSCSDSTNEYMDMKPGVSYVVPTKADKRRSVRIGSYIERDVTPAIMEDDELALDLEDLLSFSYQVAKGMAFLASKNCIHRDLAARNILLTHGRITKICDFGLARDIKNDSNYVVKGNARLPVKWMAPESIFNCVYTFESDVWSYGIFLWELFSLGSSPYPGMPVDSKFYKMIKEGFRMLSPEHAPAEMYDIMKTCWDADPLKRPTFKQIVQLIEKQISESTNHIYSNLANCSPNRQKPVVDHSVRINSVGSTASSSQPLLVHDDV
T1 sequence (P10721 26-520 limits assumed): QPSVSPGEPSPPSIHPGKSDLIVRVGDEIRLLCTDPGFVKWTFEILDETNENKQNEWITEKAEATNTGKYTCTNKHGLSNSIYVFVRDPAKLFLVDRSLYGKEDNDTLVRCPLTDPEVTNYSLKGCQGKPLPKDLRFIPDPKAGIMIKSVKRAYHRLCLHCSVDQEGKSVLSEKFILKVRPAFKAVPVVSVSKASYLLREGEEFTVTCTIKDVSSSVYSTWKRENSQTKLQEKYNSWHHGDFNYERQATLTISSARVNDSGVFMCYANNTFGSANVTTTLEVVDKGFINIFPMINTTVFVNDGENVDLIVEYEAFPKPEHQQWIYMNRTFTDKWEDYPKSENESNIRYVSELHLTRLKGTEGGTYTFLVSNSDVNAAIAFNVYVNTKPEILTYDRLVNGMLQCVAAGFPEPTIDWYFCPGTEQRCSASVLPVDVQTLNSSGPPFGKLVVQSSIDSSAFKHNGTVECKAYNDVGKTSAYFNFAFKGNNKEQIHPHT
Sequence of wild type CD117 extracellular domain (ECD) protein (P10721 26-524 limits assumed): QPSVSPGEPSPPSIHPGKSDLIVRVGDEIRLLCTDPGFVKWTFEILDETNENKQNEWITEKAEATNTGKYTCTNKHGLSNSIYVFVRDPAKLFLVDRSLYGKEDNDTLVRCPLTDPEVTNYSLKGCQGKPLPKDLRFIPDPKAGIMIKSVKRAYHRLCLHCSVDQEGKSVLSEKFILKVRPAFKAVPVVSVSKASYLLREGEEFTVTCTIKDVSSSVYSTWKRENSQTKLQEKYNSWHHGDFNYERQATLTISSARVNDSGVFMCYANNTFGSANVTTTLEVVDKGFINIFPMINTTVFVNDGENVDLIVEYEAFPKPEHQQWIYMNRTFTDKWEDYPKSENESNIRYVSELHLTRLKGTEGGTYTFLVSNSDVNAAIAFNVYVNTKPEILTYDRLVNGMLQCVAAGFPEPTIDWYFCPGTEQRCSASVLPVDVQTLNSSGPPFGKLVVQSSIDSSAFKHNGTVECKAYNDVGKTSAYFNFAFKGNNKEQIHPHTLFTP
T3 sequence (P10721 26-976 T144A limits assumed): as the sequence (P10721 26-976 limits assumed) above, with T119A counted along it
T2 sequence (chain, as listed by the source): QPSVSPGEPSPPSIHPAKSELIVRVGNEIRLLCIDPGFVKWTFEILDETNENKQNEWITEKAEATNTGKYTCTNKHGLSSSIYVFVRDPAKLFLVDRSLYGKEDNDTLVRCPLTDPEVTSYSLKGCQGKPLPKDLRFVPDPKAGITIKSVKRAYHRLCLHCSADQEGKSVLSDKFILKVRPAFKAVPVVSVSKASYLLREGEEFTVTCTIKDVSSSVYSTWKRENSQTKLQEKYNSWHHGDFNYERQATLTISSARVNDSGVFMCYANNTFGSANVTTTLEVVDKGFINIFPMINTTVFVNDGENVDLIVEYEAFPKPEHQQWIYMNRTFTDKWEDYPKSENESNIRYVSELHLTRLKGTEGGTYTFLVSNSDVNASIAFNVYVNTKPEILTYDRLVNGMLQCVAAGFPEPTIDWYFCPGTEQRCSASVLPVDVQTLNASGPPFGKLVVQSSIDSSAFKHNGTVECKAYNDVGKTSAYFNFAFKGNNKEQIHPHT
T5 sequence (P10721 26-520 Y259C/N260D limits assumed): as the sequence (P10721 26-520 limits assumed) above, with Y234C, N235D counted along it

B1: ABTx070 (antibody, human IgG1, kappa, V domains shown)
VH: EVQLVESGGGVVRPGGSLRLSCAASGFTFDDYGMSWVRQAPGKGLEWVSDINWNGGSTGYADSVKGRFTISRDNAKNSLYLQMNSLRAEDTALYYCARESWDGSGIYYMDVWGKGTTVTVSS
VL: DIVMTQSPSFLSASVGDRVTITCRASQGISSYLNWYQQKPGKAPKLLIYAASTLQNGVPSRFSGSGSGTDFTLTISSLQPEDFATYYCQQSYSTPITFGQGTRLEIKR
For orientation: Kd means the concentration at which binding is half-saturated. For the molecule B1, the Kd in test [1] was determined as 6.5 nM; in the test with Cyno CD117, 0.486 nM. Further, the binding result in [2] is listed as “no binding”.

B2: ABTx071 (antibody, human IgG1, kappa, V domains shown)
VH: EVQLVESGGGVVRPGGSLRLSCAASGFTFDDYGMSWVRQAPGKGLEWVSGINWNGGSTGYADSVKGRFTISRDNAKNSLHLQMNSLRAEDTALYYCARESWNYEGYYYMDVWGKGTTVTVSS
VL: AIQMTQSPSFLSASVGDRVTITCRASQGISSYLAWYQQKPGKAPKLLIYAASTLQNGVPSRFSGSGSGTEFTLTISSLQPEDFATYYCQQLNSYPYTFGQGTKLEIKR
On to B2, for which the Kd in test [1] stood at 0.523 nM; with Cyno CD117, 4.28 nM. Further, in [2], the binding result is “no binding”.

B3: ABTx196 (antibody, human IgG1, V domains shown)
VH: EVQLVESGGGLVQPGRSLRLSCAASGFTFDDYAMHWVRQAPGKGLEWVSGISWNSGTIGYADSVKGRFTNSRDNAKNSLYLEMNSLRAEDTALYYCAKDSPPGYCSSASCYGAFDIWGQGTMVTVSS
VL: DVVMTQSPGTLSLSPGERATLSCRASQSVSSSYLAWYQQKPGQAPRLLIYGASSRATGIPDRFSGSGSGTDFTLTISRLEPEDFAVYYCQQSETCLTFGGGTKLEIK
Broadly, the EC50 is the midpoint of the concentration-response curve. Read a high EC50 as weaker potency. By koff is commonly meant a measure of how fast the partners let go of each other. A lower koff goes with a long-lived complex. In general, kon refers to a measure of how fast the partners come together. Read a high kon as fast association. Molecule B3 gave a Kd in test [3] of 8.18 nM. Moreover, in test [4], the response was half-maximal at 5.21 nM (EC50). This molecule also displayed a 50% effective concentration (EC50) in test [5] of 5.21 nM. In [6], this molecule returned a Kd of 8.18 nM, a koff of 0.000691 s⁻¹ and a kon of 84400 M⁻¹ s⁻¹. In addition, the “IC50 (M), depletion of human CD34+ HSPCs” value in test [7] was 1.3e-05 M.

B4: ABTx198 (antibody, human IgG1, V domains shown)
VH: EVQLVESGGGLVQPGRSLRLSCAASGFTFDDYAMHWVRQAPGKGLEWVSGISWNSGTIGYADSVKGRFTNSRDNAKNSLYLEMNSLRAEDTALYYCAKDSPPGYCASASCYGAFDIWGQGTMVTVSS
VL: DVVMTQSPGTLSLSPGERATLSCRASQSVSSSYLAWYQQKPGQAPRLLIYGASSRATGIPDRFSGSGSGTDFTLTISRLEPEDFAVYYCQQDSLGLTFGGGTKLEIK
Turning to B4, the Kd in test [3] and in [6] was 1.2 nM in each case. In addition, the EC50 in test [4] and in test [5] was 5.42 nM each time. In [6], this molecule gave an off-rate (koff) of 8.74e-05 s⁻¹. In test [6], this molecule had a kon of 72800 M⁻¹ s⁻¹. The “IC50 (M), depletion of human CD34+ HSPCs” value in test [7] worked out at 3.59e-06 M.

B5: ABTx252 (antibody, human IgG1, kappa, V domains shown)
VH: QVQLVQSGAAVKKPGESLKISCKGSGYRFTSYWIGWVRQMPGKGLEWMGIIYPGDSDTRYSPSFQGQVTISAGKSISTAYLQWSSLKASDTAMYYCARHGRGYDGYEGAFDIWGQGTMVTVSS
VL: AIQLTQSPSSLSASVGDRVTITCRASQGISSALAWYQQKPGKAPKLLIYDASSLESGVPSRFSGSGSGTDFTLTISSLQPEDFATYYCQQFNSHPLTFGGGTKVEIKR
Take B5: the binding result in test [8] is given as “no binding”.

B6: ABTx253 (antibody, human IgG1, kappa, V domains shown)
VH: QVQLVQSGAAVKKPGESLKISCKGSGYRFTSYWIGWVRQMPGKGLEWMGIIYPGDSDTRYSPSFQGQVTISAGKSISTAYLQWSSLKASDTAMYYCARHGRGYDGYEGAFDIWGQGTMVTVSS
VL: AIQLTQSPSSLSASVGDRVTITCRASQGISSALAWYQQKPGKAPKLLIYDASSLESGVPSRFSGSGSGTDFTLTISSLQPEDFATYYCQQFSSYPLTFGGGTKVEIKR
Consider B6, for which the midpoint of the response in test [9], the EC50, lay at 0.0529 nM. The “IC50 [M], viability of unedited HSCs with 100 ng/mL SCF, 5-7 days” value in test [10] turned out to be 2.21e-06 M. Also, in test [11], binding was characterised by a dissociation constant (Kd) of 13.1 nM, the koff was 0.00408 s⁻¹ and the on-rate constant (kon) is 312000 M⁻¹ s⁻¹.

B7: ABTx308 (antibody, human IgG1, kappa, L234A L235A, V domains shown)
VH: QVQLVQSGAAVKKPGESLKISCKGSGYRFTSYWIGWVRQMPGKGLEWMGIIYPGDSDTKYSPSFQGQVTISAGKSISTAYLQWSSLKASDTAMYYCARHGRGYDAYDGAFDIWGQGTMVTVSS
VL: AIQLTQSPSSLSASVGDRVTITCRASQGISSALAWYQQKPGKAPKLLIYDASSLESGVPSRFSGSGSGTDFTLTISSLQPEDFATYYCQQFSSYPLTFGGGTKVEIKR
notes: Fc with LALADA
Regarding B7, in [12], the affinity, expressed as Kd, was 8.48 nM; the koff stood at 0.0166 s⁻¹; the on-rate constant (kon) was found to be 1.95e+06 M⁻¹ s⁻¹. This molecule displayed an EC50 in test [13] of 0.398 nM. Further, in [14], the equilibrium dissociation constant (Kd) worked out at 7.49 nM.
